These results are taken from article PMC7732827, “Autoregulation of yeast ribosomal proteins discovered by efficient search for feedback regulation”.

The data set has as its target Rpl1B-HIS (Saccharomyces cerevisiae, UniProt P0CX44 1-217). The experiment in a line: EMSA; 20 mM Mg2+; 400 nM RNA, 0.1-1 ug protein in 10 ul; 50 mM Tris-HCl pH 8.5, 350 mM KCl, 20 mM MgCl2, 0.1% NP-40, 10% glycerol, 30 min at 4 C; 7.5% Tris-glycine PAGE in the cold room. The conditions noted are these: protein: recombinant; tags: C-terminal His6 (HHHHHH); label: none (SYBR Green I stain); two hairpins (HP1, HP2), predicted.

Rpl1B-HIS, sequence (P0CX44 whole entry): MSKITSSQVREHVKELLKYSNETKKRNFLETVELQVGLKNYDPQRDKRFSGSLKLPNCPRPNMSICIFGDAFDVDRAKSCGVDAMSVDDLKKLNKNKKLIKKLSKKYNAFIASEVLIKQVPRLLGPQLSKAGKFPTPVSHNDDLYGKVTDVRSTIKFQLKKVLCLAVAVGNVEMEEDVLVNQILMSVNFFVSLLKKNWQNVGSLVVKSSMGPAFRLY

B1: RPL1B-UTR RNA, synthetic (structured_RNA)
RNA: AUAGAACUAGUCGCAAGCCUCACGGACCACCAAAUACUUUGGAAGACUAAUUACAUAUCAUAAA
For B1, the binding result is “binds”.
